Reference: patent US20240238445A1, “INHIBITORS AND USES THEREOF” (NEURACLE SCIENCE CO., LTD., priority 2021, published 2024)

B1: LRRC4B (453-576): LRRC4B ectodomain fragment, amino acids 453-576 of SEQ ID NO: 2; FLAG-tagged or hFc-fused (protein)
chain: VSAVDPVAAGGTGSGGGGPGGSGGVGGGSGGYTYFTTVTVETLETQPGEEALQPRGTEKEPPGPTTDGVWGGGRPGDAAGPASSSTTAPAPRSSRPTEKAFTVPITDVTENALKDLDDVMKTTK
modifications: FLAG tag or human Fc
notes: FLAG-tagged or hFc-fused
B2: LRRC4B (498-576): LRRC4B ectodomain fragment, amino acids 498-576 of SEQ ID NO: 2 (protein)
chain: QPGEEALQPRGTEKEPPGPTTDGVWGGGRPGDAAGPASSSTTAPAPRSSRPTEKAFTVPITDVTENALKDLDDVMKTTK

Experiments:
[1] = target: binding of FAM19A5 protein to full-length ectodomain of LRRC4 protein (Homo sapiens, UniProt Q7Z5A7); assay: Competitive inhibition assay, plate coated with full-length ectodomain of LRRC4; conditions: FAM19A5 5 ng/mL; 100 nM/well coat
Protocol: (§1) As described in Example 3, there appeared to be much similarity in the binding domains of the different members of the LRRC4 family. […] Then, recombinant FAM19A5 protein (5 ng/mL) was added in combination with one of the following: (i) LRRC4B (484-576) protein fragment, (ii) LRRC4B (453-576, AA) protein fragment, and (iii) synthetic FB-20 peptide. The plates were incubated at 37° C., and then, the amount of FAM19A5 protein bound to the coated LRRC4, LRRC4B, or LRRC4C proteins was measured using anti-FAM19A5 (1-65) antibody.

[2] = target: T1, FAM19A5 protein (Homo sapiens, UniProt Q7Z5A7); assay: ELISA binding of recombinant FAM19A5 to coated hFc-conjugated LRRC4 family ectodomains, fragments or synthetic peptides; conditions: coated 100 nM/well, FAM19A5 up to 10 nM
Protocol: Next, to confirm the above co-immunoprecipitation results, an ELISA assay was used to measure the binding of the FAM19A5 protein to either the full-length ectodomain of members of LRRC4 protein family or various LRRC4B ectodomain protein fragments. Specifically, an ELISA plate was coated with one of the following LRRC4B ectodomain protein, which was conjugated to human Fc (100 nM/well): (1) full-length ectodomain of LRRC4 protein (amino acid residues 39-527 of SEQ ID NO: 1) (SEQ ID NO: 4); (2) full-length ectodomain of LRRC4B protein (amino acids 36-576 of SEQ ID NO: 2; i.e., construct #7 in Table 6) (SEQ ID NO: 5); (3) full-length ectodomain of LRRC4C protein (amino acids 45-527 of SEQ ID NO: 3) (SEQ ID NO: 6); (4) LRRC4B ectodomain fragment (amino acids 453-576 of SEQ ID NO: 2; i.e., construct #11 in Table 6) (SEQ ID NO: 7); (5) LRRC4B ectodomain fragment (amino acids 484-576 of SEQ ID NO: 2; i.e., construct #12 in Table 6) (SEQ ID NO: 8); (6) LRRC4B ectodomain fragment (amino acids 482-576 of SEQ ID NO: 2) (SEQ ID NO: 9); (7) LRRC4B ectodomain fragment (amino acids 482-497 of SEQ ID NO: 2) (SEQ ID NO: 10); and (8) LRRC4B ectodomain fragment (amino acids 498-576 of SEQ ID NO: 2; i.e., construct #13 in Table 6) (SEQ ID NO: 11). Then, recombinant FAM19A5 proteins (0.005, 0.01, 0.025, 0.05, 0.1, 0.25, 0.5, 1, 2.5, 5, and 10 nM) were added to the relevant wells, and the plates were incubated at 37° C. for 1 hour. Afterwards, the amount of LRRC4B-bound FAM19A5 protein was detected using HRP-conjugated anti-FAM19A5 (1-65) antibody.
As further confirmation, three synthetic polypeptides comprising amino acids 484-497 of SEQ ID NO: 2 (i.e., YTYFTTVTVETLET; SEQ ID NO: 65) were constructed: (1) FB-16 (GYTYFTTVTVETLETQ; SEQ ID NO: 17), (2) FB-20 ([…]; SEQ ID NO: 18), and (3) FB-28 ([…]; SEQ ID NO: 19). The peptides differed in their total length. The ability of these polypeptides to bind to recombinant FAM19A5 protein was assessed using an ELISA assay as described above.

[3] = target: binding of FAM19A5 protein to full-length ectodomain of LRRC4C protein (Homo sapiens, UniProt Q7Z5A7); assay: Competitive inhibition assay, plate coated with full-length ectodomain of LRRC4C; conditions: FAM19A5 5 ng/mL; 100 nM/well coat
Protocol: as §1

[4] = target: T1, FAM19A5 protein; assay: Co-immunoprecipitation of FLAG-tagged LRRC4 family deletion constructs/fragments with recombinant FAM19A5 in HEK293 cells; assay type: binding; conditions: HEK293 cells expressing FLAG-tagged construct, recombinant FAM19A5 1 μM 30 minutes; IP anti-FLAG, blot anti-FAM19A5 (3-2)
Procedure, shortened: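 HEK293 cells expressing FLAG-tagged LRRC4B deletion constructs or LRRC4C (aa 354-527) / LRRC4 (aa 353-527) fragments were treated with 1 μM recombinant FAM19A5 for 30 min. Lysates immunoprecipitated with anti-FLAG and immunoblotted with anti-FLAG and anti-FAM19A5 (3-2) antibodies.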

T1 sequence (Q7Z5A7 44-132): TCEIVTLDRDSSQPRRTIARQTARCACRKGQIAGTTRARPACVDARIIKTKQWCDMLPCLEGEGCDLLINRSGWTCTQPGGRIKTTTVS
binding of FAM19A5 protein to full-length ectodomain of LRRC4C protein, sequence (Q7Z5A7 44-132): as above
binding of FAM19A5 protein to full-length ectodomain of LRRC4 protein, sequence (Q7Z5A7 44-132): as above

Molecule	inhibition of FAM19A5 binding to coated LRRC4 protein (in words) [1]	binding to FAM19A5 protein (ELISA, in words) [2]	inhibition of FAM19A5 binding to coated LRRC4C protein (in words) [3]	binding to FAM19A5 protein (co-immunoprecipitation) [4]
GYTYFTTVTVETLETQPGEE [FB-20]	able to inhibit FAM19A5 protein from binding	able to bind to recombinant FAM19A5 protein with high affinity	able to inhibit FAM19A5 protein from binding	
B1				able to bind to the FAM19A5 protein with varying degree
B2		failed to bind to FAM19A5		not able to do so
